The text below walks through data of the DeepSol protein solubility set.

The series in a line: soluble on expression in E. coli; label from the status in PepcDB or PDB records.
With “MGSDKIHHHHHHMKIARLNLWHVPLTSHTAYYMADGKTCDTVETVVIAVQTDTGITGWGEVCPIPHYLPAYARGVAPALTELAPVILGADPVGVGALMERVDAVLHGHPYAKSALDIALWDITGQVAGLPLHALLGGWRAADMPLYHSITCIAPDDMARIAREAQAQGITQFQVKLGASGDWQTDVERLAKVREAVGPGPLVYGDWNCGATSLEAIRVGRAVAQLDIMLEQPCATLEDCARVQRATGLPMKIDELAHDTASLLTAHRLGIMDAVALKLSKFGGLSTTRRARDLCLHLGARMCIEDTWGSDITTAALLHLGAASEPGRVLNVCDLSGYVAPRLAPDAPVRANGRIAPPEGAGLGITVDRGALGVPDLILD”, the “soluble on expression in E. coli” value is given as “not soluble”. Turning to “MDIKKFVARRKALQISQIKLSAGICTQATLSKFERRGRVPSLAILEQLCARLGLTVDELNEDQASSVTQMRQELDHIERQLMMEDYQVVLQALNRIAVSEIAAVPLRMQYYYLSGLLKSLINGAVSDVCFDFDQILDDLDQTHETVFTPLAYVGLGVMYSRLSELAKAQFYFEKVHQAVKQALVNGDDQDYLRLLTMIFYTAEYEATREDFTTSNGLINDGVSLCSEQHVTYYLPRLKYLATANAIQQCQPDEQIQQLLSETVAFARINHNQVVEVKAAALRRRYLQARKHA”, the “soluble on expression in E. coli” value is recorded as “not soluble”. To “MKKKSNLTLFMKQLIRSLKEEERFSTAHIYQSTLNAFMLFCKTDAIRFNQMERSRLKQFENHLRNKGCTWNTVSTYMRTLRSIYNKAVDDGLAEEKPRLFRHVYTGVKANTKRALDAKDMSKLLSASLPRPLPQSMKESRAWITLMFLLRGMPFVDLAHLRKTDLQDSVISYRRHKTGALLTVEIPPAAMNLIKRYQNTDSASPYLLPILSGNRKSEEEYAEYQHALRKLNYDLKQLAVYCGIKLNVSSYTSRHTWATLAKYCHFSEQLICDALGHSSTKVTETYLKSFKNDELDRANKVIINHINISI” belongs “not soluble”; to “MKMTVVGFWGGFPEAGEATSGYLFEHDGFRLLVDCGSGVLAQLQKYITPSDIDAVVLSHYHHDHVADIGVLQYARLITSATKGQLPELPIYGHTFDENGFHSLTHEPHTKGIPYNPEETLQIGPFSISFLKTVHPVTCFAMRITAGNDIVVYSADSSYIPEFIPFTKDADLFICECNMYAHQEAAKAGHMNSTEVASIAKDANVKELLLTHLPHTGNPADLVTEAKQIFSGHITLAHSGYVWNS”, “soluble”. For the sequence “GPGSMQRSTRIVMAPFKSVLRRHKHHPEGLPLYNDMSKQWLCREGERWWLLDARGEQLPRVAAVAAQYITGQHRPDFTPGMITGDHVVIVNIKDVVMVGDQWIRVPITWQTAYPGGKYRIRLTDMYERDPCMLMWWFLKDEVNRHFVRKLKTRIAPLEKAWLYEDSIHPHADKNPRPLCWTDPEVKGWKYRDPQFIRRWKPNEFMH”, the “soluble on expression in E. coli” value is on record as “not soluble”.

As for “YHKLRLAIKEICKTDGIPNIKWGMYIAFGEKLLKSYLKMKAGSASSDMIAEYINNAISAFSSRTGISQETAQKIADFITSNY”, the “soluble on expression in E. coli” value is reported as “soluble”. On to “ACGYSDRVLQLTLGNSTITTQEAANSVVAYGRWPEFIRDDEANPVDQPTEPDVATCRFYTLDTVMWGKESKGWWWKLPDALRDMGLFGQNMYYHYLGRSGYTVHVQCNASKFHQGALGVFAIPEYCLAGDSDKQRYTSYANANPGERGGKFYSQFNKDNAVTSPKREFCPVDYLLGCGVLLGNAFVYPHQIINLRTNNSATIVLPYVNALAIDSMVKHNNWGIAILPLSPLDFAQDSSVEIPITVTIAPMCSEFNGLRNVTAPKFQ”, for which the “soluble on expression in E. coli” value is “soluble”. For “MSLATVLVTGATGFIGSHVVEALAPRHDVVGLASSVYPSPRDAVRHVRMTLPHPDLEELVATLRPDVVVHCAGVASVGLSMHSPGVDFQSGPPVVFQLFDAIRKAGLASKVVLLSSAAVYGNPQSLPVGEDAPRAPISPYGWHKGMCEDIAQEFHGTYGIRSAVLRIFSCYGAGLRKQLLWDAAHKLLEGAFVFDGTGDETRDFIHVRDVAAFVTRLVEGWPDGGCVVCNVASGEATRIADLLALLPEAFGLSGVVPVFTGRVRGGDPHHWRADISRARQMGLAPAVSLEEGVREYATWFFAVTGGEGHHHHHH”, the “soluble on expression in E. coli” value is reported as “soluble”.

As for “MTEKVSRFPGVFPLIVIGVPGSVDKTHKKLAFAPNLNRWRDIDVEKYFKVFEVYLENDANLAALAEMMRNKHFGDRKNIVYILVREGIGGGIIIEGKLYKGSFNAAGEIGHMKMYDRGPCFCGRVGCWEANTSISHCVRQYEKKKPLPGNTMYEKFETLCRIYEEDPLAKEVLDEFTGILIDGIVNLVNILSPEIVIVGGEGVFLPESVFEVIVSETRRQVHPMDKEVSVEKGSLSNKEVVLEGTSILSSMMISERLV”, the “soluble on expression in E. coli” value is “soluble”.

As for “ACTQPSDWVPPAKNDALVIALKKVIGGRLSDAFHIRDKLQRRDAIAAVKDDVIQQLAGRLEVEGWNLAELLKEFGELEYRTMRDALLDTKVRIDGRSLEAVRP”, the “soluble on expression in E. coli” value is listed as “not soluble”.

For the sequence “AHHHHHHGSLSERELERYDRQIMIFGIEGQEKLKKANVAVVGVGGLGSPVAYYLAAAGVGTILLIDEQTPELSNLNRQILHWEEDIEKNPKPISAKWKLERFNSNIKIETFVGRLSEENIDEVLSGVDVIVDCLDNFETRYLLDDFAHKKGIPLVHGAVEGFYGQVTTIIPGKTKRLREIFPKVKKKGKFPIVGATAGVIGTIQASEVIKLITGYGEPLANKLLIIDLANNTYEIIEI”, the “soluble on expression in E. coli” value is “soluble”. To “EEPTIGDIYNGKVTSIMQFGCFVQLEGLRKRWEGLVHISELRREGRVANVADVVSKGQRVKVKVLSFTGTKTSLSMKDVDQETGEDLNPNRRRNLV” belongs “soluble”; to “MISMKPRYKPDWESLREHTVPKWFDKAKFGIFIHWGIYSVPGWATPTGELGKVPMDAWFFQNPYAEWYENSLRIKESPTWEYHVKTYGENFEYEKFADLFTAEKWDPQEWADLFKKAGAKYVIPTTKHHDGFCLWGTKYTDFNSVKRGPKRDLVGDLAKAVREAGLRFGVYYSGGLDWRFTTEPIRYPEDLSYIRPNTYEYADYAYKQVMELVDLYLPDVLWNDMGWPEKGKEDLKYLFAYYYNKHPEGSVNDRWGVPHWDFKTAEYHVNYPGDLPGYKWEFTRGIGLSFGYNRNEGPEHMLSVEQLVYTLVDVVSKGGNLLLNVGPKGDGTIPDLQKERLLGLGEWLRKYGDAIYGTSVWERCCAKTEDGTEIRFTRKCNRIFVIFLGIPTGEKIVIEDLNLSAGTVRHFLTGERLSFKNVGKNLEITVPKKLLETDSITLVLEAVEEHHHHHH”, “soluble”; to “MGSDKIHHHHHHMTNLLSVRDLSIALCQGQEQRYILEKVTFEIKEGETVALVGESGSGKSVTALSILQLLPFLKTLYQSGEILFNDKDLLKQKEEDLRKVRGKDIAMIFQEPMTALNPLHNVERQIGEVLKMHSDMTNQSLRAHIIDLLTQVGIHEPQKRLGSFPHELSGGQRQRVMIAMALANNPRLLIADEPTTALDVTVQARILELLVHLKKQNNMSMLFITHNLAIVRCIADRVYVMRKGKIVESAPIDQLFANAQKPYTKQLLAAEPKGYPLQADKSAPILMQGKKVRVWFPIKKGLLRRTKGYIKAVQDMDVTIRVGQTLGVVGESGSGKTTLGLSLIRMLSSKGQIIFDDIDISNFTFKKMRSLRRHIQIVFQDPFGSLSPRMSVSEIIAEGLSIHEPKLSYSERNDRVIEALHEVNLDPSTRYRYPHEFSGGQRQRIALARAIILKPRFIMLDEPTSSLDVSVQAQIISLLLHLQKKYHLGYLFISHDLKVIKALAHEVIVMRNGEMVEYGSADRIFSCPQNTYTQSLMAAAFALESDRL”, “not soluble”. Next, “MGTASYPDPEIRALAEKITANATSDLEKVKAIESYLKNNYINTYVERTDVKEFLFKTKRGTAREFATAFVLLAQSIGIPARAVFGYLADPVETNQTIFASDAYVWAEVRFKEGWMEFDPAPEGRG”: “soluble”. To “HNGDLYFSNVMLQDMQTDYSCNARFHFTHTIQQKNPFTLKVLTTRGVAERTPSFMYPQGTASSQMVLRGMDLLLECIASGVPTPDIAWYKKGGDLPSDKAKFENFNKALRITNVSEEDSGEYFCLASNKMGSIRHTISVRVKAAPYWLDEPKNLILAPGEDGRLVCRANGNPKPTVQWMVNGEPLQSAPPNPNREVAGDTIIFRDTQISSRAVYQCNTSNEHGYLLANAFVSVLDVPPRMLSPRNQLIRVILYNRTRLDCPFFGSPIPTLRWFKNGQGSNLDGGNYHVYENGSLEIKMIRKEDQGIYTCVATNILGKAENQVRLEVKDPTRIYRMPEDQVARRGTTVQLECRVKHDPSLKLTVSWLKDDEPLYIGNRMKKEDDSLTIFGVAERDQGSYTCVASTELDQDLAKAYLTVLGRPDRPRDLELTDLAERSVRLTWIPGDANNSPITDYVVQFEEDQFQPGVWHDHSKYPGSVNSAVLRLSPYVNYQFRVIAINEVGSSHPSLPSERYRTSGAPPESNPGDVKGEGTRKNNMEITWTPMNATSAFGPNLRYIVKWRRRETREAWNNVTVWGSRYVVGQTPVYVPYEIRVQAENDFGKGPEPESVIGYSGEDYPRAAPTEVKVRVMNSTAISLQWNRVYSDTVQGQLREYRAYYWRESSLLKNLWVSQKRQQASFPGDRLRGVVSRLFPYSNYKLEMVVVNGRGDGPRSETKEFTTPEGVPSAPRRFRVRQPNLETINLEWDHPEHPNGIMIGYTLKYVAFNGTKVGKQIVENFSPNQTKFTVQRTDPVSRYRFTLSARTQVGSGEAVTEESPAPPNEGRCMAAAPGVKGPS” belongs “soluble”; to “MNANLPPSAISELHGPRLLLRAWRDSDREAFAEMCADPQVMEFFPSVLDRAQSDALVDRVQAHFAERGYGPWALELPGEAAFIGFTGLFDVTMDVHFAPTVEIGWRLAPAYWGRGLAREAAETALDFAFERLRLPEVVAFTTPPNRRSWGLMERLGMRRDPAEDFDHPLLAADHPMRRHILYRVDAARWAER”, “not soluble”; to “MTNPLLTPFELPPFSKILPEHVVPAVTKALNDCRENVERVVAQGAPYTWENLCQPLAEVDDVLGRIFSPVSHLNSVKNSPELREAYEQTLPLLSEYSTWVGQHEGLYKAYRDLRDGDHYATLNTAQKKAVDNALRDFELSGIGLPKEKQQRYGEIATRLSELGNQYSNNVLDATMGWTKLVTDEAELAGMPESALAAAKAQAEAKELEGYLLTLDIPSYLPVMTYCDNQALREEMYRAYSTRASDQGPNAGKWDNSKVMEEILALRHELAQLLGFENYAFKSLATKMAENPQQVLDFLTDLAKRARPQGEKELAQLRAFAKAEFGVDELQPWDIAYYSEKQKQHLYSISDEQLRPYFPENKAVNGLFEVVKRIYGITAKERKDVDVWHPDVRFFELYDENNELRGSFYLDLYARENKRGGAWMDDCVGQMRKADGSLQKPVAYLTCNFNRPVNGKPALFTHDEVITLFHEFGHGLHHMLTRIETAGVSGISGVPWDAVELPSQFMENWCWEPEALAFISGHYETGEPLPKELLDKMLAAKNYQAALFILRQLEFGLFDFRLHAEFRPDQGAKILETLAEIKKLVAVVPSPSWGRFPHAFSHIFAGGYAAGYYSYLWADVLAADAFSRFEEEGIFNRETGQSFLDNILSRGGSEEPMDLFKRFRGREPQLDAMLEHYGIKG”, “soluble”. With “SVLPETPVPFKSGTGAIDNDTVYIGLGSAGTAWYKLDTQAKDKKWTALAAFPGGPRDQATSAFIDGNLYVFGGIGKNSEGLTQVFNDVHKYNPKTNSWVKLMSHAPMGMAGHVTFVHNGKAYVTGGVNQNIFNGYFEDLNEAGKDSTAIDKINAHYFDKKAEDYFFNKFLLSFDPSTQQWSYAGESPWYGTAGAAVVNKGDKTWLINGEAKPGLRTDAVFELDFTGNNLKWNKLAPVSSPDGVAGGFAGISNDSLIFAGGAGFKGSRENYQNGKNYAHEGLKKSYSTDIHLWHNGKWDKSGELSQGRAYGVSLPWNNSLLIIGGETAGGKAVTDSVLITVKDNKVTVQNLEHHHHHH”, the “soluble on expression in E. coli” value was “soluble”.
